One substance from patent US20190091326A1 can be followed below.

Experiment [1] deals with 108060 V1/V2 scaffold, wildtype, gD-tagged, produced in GnTI- 293 HEK cells (herpes simplex virus 1; HIV-1 isolate 108060). Put plainly: ELISA; table row 108060 V1/V2 wt, GnTI-.
Experiment [2] deals with MN V1/V2 scaffold, engineered, gD-tagged, produced in normal 293 HEK cells (herpes simplex virus 1; HIV-1 isolate MN). Put plainly: ELISA; table row MN V1/V2.eng1*, column 293. (In general: ELISA stands for enzyme-linked immunosorbent assay.)
The target in experiment [3] is ZM233 V1/V2 scaffold, engineered, gD-tagged, produced in GnTI- 293 HEK cells (herpes simplex virus 1; HIV-1 isolate ZM233). As to the kind of experiment: ELISA; table row ZM233 V1/V2.eng1*, GnTI-.
Experiment [4] concerns the target 108060 I169K/E172V/T161M/N156I V1/V2 scaffold, gD-tagged, produced in normal 293 HEK cells (herpes simplex virus 1; HIV-1 isolate 108060). Put plainly: ELISA; table row 108060 I169K/E172V/T161M/N156I, column 293.
The target in the next experiment is Bal.01 V1/V2 wt (293). Put plainly: ELISA; table row Bal.01 V1/V2 wt, column 293.
Experiment [5] concerns the target A244-rgp120 grown in GnTI- cells (HIV-1 isolate A244). As to the kind of experiment: ELISA, mAb titrated on gp120, absorbance 492 nm; curve 495 (A244 gp120 GNTI-).
The target of the next experiment is ZM197 V1/V2 wt (GnTI-). As to the kind of experiment: ELISA; table row ZM197 V1/V2 wt, GnTI-.
Another experiment has as its target ZM197 V1/V2 wt (293). As to the kind of experiment: ELISA; table row ZM197 V1/V2 wt, column 293.
Experiment [6] deals with A244 V1/V2 scaffold, engineered, Strep-tag/6x Histidine-tag, produced in normal 293 cells (HIV-1 isolate A244). Put plainly: SPR (Biacore 3000), PG9 captured by anti-human Fc, scaffold flowed, 1:1 Langmuir fit. On the technique in general: SPR reads the build-up and loss of mass on a sensor chip optically.
Experiment [7] has as its target ZM233 V1/V2 scaffold, engineered, Strep-tag/6x Histidine-tag, expressed in normal 293 cells (HIV-1 isolate ZM233). The experiment is described as above.
Experiment [8] concerns the target MN V1/V2 scaffold, mutant, Strep-tag/6x Histidine-tag, expressed in 293F cells (HIV-1 isolate MN) (UniProt P05877). Described as above.
Experiment [9] deals with 108060 V1/V2 scaffold, mutant, Strep-tag/6x Histidine-tag, expressed in 293F cells (HIV-1 isolate 108060). The experiment is described as above.
Experiment [10] deals with 108060 I169K/E172V/T161M/N156I/S164P/L165G V1/V2 scaffold, gD-tagged, produced in normal 293 HEK (293F) cells (herpes simplex virus 1; HIV-1 isolate 108060). Put plainly: capture ELISA on 34.1 anti-gD; purified scaffold made in 293F cells.
Experiment [11] deals with 108060 I169K/E172V V1/V2 scaffold, gD-tagged, produced in normal 293 HEK cells (herpes simplex virus 1; HIV-1 isolate 108060). As to the kind of experiment: ELISA; table row 108060 V1/V2 I169K/E172V, column 293.
A further experiment deals with ZM109 V1/V2 wt (293). As to the kind of experiment: ELISA; table row ZM109 V1/V2 wt, column 293.
In experiment [12] the target is UCSC1207 V1/V2/V3 scaffold (glycosylation site moved from N334 to N332) grown in GnTI- cells (HIV-1 isolate A244 (clade CRF01-AE)). As to the kind of experiment: ELISA, mAb titrated on scaffold, absorbance 492 nm; curve 512 (1207 GNTI-).
For experiment [13], the target named is JRFL-E168K V1/V2 scaffold, engineered, gD-tagged, produced in GnTI- 293 HEK cells (herpes simplex virus 1; HIV-1 isolate JRFL). As to the kind of experiment: ELISA; table row JRFL-E168K V1/V2.eng1*, GnTI-.

For PG9 monoclonal antibody, the EC50 – broadly, the concentration needed to bring the measured effect to its halfway point – was over 10 µg/mL in experiment [1]; 0.0274 µg/mL in [2]; 0.0085 µg/mL in experiment [3]; 0.599 µg/mL in [4]; 0.853 µg/mL with Bal.01 V1/V2 wt (293); 0.02 µg/mL in experiment [5]. For the same substance, the EC50 is 0.0303 µg/mL in the experiment with ZM197 V1/V2 wt (GnTI-); 2.74 µg/mL with ZM197 V1/V2 wt (293); 0.156 µg/mL in experiment [10]; over 10 µg/mL in experiment [11]; 0.517 µg/mL with ZM109 V1/V2 wt (293); 0.02 µg/mL in [12]. Moreover, in experiment [13], the EC50 was found to be 0.013 µg/mL. Also, the Kd (usually the constant that tells how readily two partners part at equilibrium) in experiment [6] was 49 nM; in experiment [7], 33 nM; in experiment [8] it was 118 nM; in experiment [9] it was 74 nM.
